Assay results published in patent publication US20180016324A1 (Regeneron, published 2018).
Like-named read-outs stand apart in the source and are kept apart here.

Tests used:
[1] = target: T1, ZIKV envelope glycoprotein (E) of strain MR766 (Uganda 1947) (Zika virus, UniProt Q32ZE1 291-790); experiment: cell-based or functional assay
[2] = target: T2, ZIKV prM/E polyprotein on virus-like particles (VLPs) from HEK293T/17 cells (Zika virus, UniProt A0A024B7W1 123-795); experiment: MSD ECL, VLPs on plate
T2 construct: also called ZIKV prM/E VLPs; Zika prM/E VLPs

[3] = target: T3, ZIKV (prM80E) with a C-terminal myc-myc-hexahistidine tag (Zika virus, UniProt A0A024B7W1 104-694); experiment: SPR, mAb captured, 37C, pH 5.5 chase
T3 construct: also called ZIKV (prM80E)-mmH; ZIKV-mmH

[4] = target: T3, ZIKV (prM80E) with a C-terminal …; experiment: SPR, mAb captured, 37C
[5] = target: T3, ZIKV (prM80E) with a C-terminal …; experiment: SPR, mAb captured, 37C, pH 6.0 chase
[6] = target: T3, ZIKV (prM80E) with a C-terminal …; experiment: SPR, mAb captured, 25C
[7] = target: T3, ZIKV (prM80E) with a C-terminal …; experiment: SPR, mAb captured, 37C, pH 7.4
[8] = target: T3, ZIKV (prM80E) with a C-terminal …; experiment: SPR, mAb captured, 37C; remark: listed apart in the source
[9] = target: T3, ZIKV (prM80E) with a C-terminal …; experiment: SPR, mAb captured, 37C, pH 5.0 chase
[10] = target: T1, ZIKV envelope glycoprotein (E) of …; experiment: cell-based or functional assay; remark: listed apart in the source
[11] = target: ZIKV envelope glycoprotein (E) of strain FLR (Colombia 2015) (Zika virus); experiment: cell-based or functional assay
[12] = target: ZIKV envelope glycoprotein (E) of strain PRVABC59 (Puerto Rico 2015) (Zika virus); experiment: cell-based or functional assay
[13] = target: ZIKV E protein with escape mutation S302F (Zika virus); experiment: cell-based or functional assay
[14] = target: T3, ZIKV (prM80E) with a C-terminal …; experiment: SPR, mAb captured, 37C; remark: listed apart in the source
[15] = target: T2, ZIKV prM/E polyprotein on virus-like …; experiment: MSD ECL, VLPs on plate; high concentrations excluded from fit
[16] = target: ZIKV E protein with escape mutations T311I and K369E (Zika virus); experiment: cell-based or functional assay

| Binder | EC50 [2] [nM] | koff [3] [s⁻¹] | t½ [3] [min] | Kd [4] [nM] | koff [4] [s⁻¹] | kon [4] [M⁻¹ s⁻¹] | t½ [4] [min] | koff [5] [s⁻¹] | t½ [5] [min] | Kd [6] [nM] | koff [6] [s⁻¹] | kon [6] [M⁻¹ s⁻¹] | t½ [6] [min] | koff [7] [s⁻¹] | t½ [7] [min] | t½ pH 7.4/t½ pH 5.0 [8] | t½ pH 7.4/t½ pH 5.5 [8] | koff [9] [s⁻¹] | t½ [9] [min] | neutralization IC50, Vero cells [10] [nM] | other results |
| --- | --- | --- | --- | --- | --- | --- | --- | --- | --- | --- | --- | --- | --- | --- | --- | --- | --- | --- | --- | --- | --- |
| H2aM25710N (antibody, V domains shown) VH: EVQLLESGGGLVQPGGSLRLSCAASGFTVSNNYMSWVRQAPGKGLEWVSVIYSGGRTNYGDSVKGRFTISRDNSKNTLYLQMNSLRAEDTAVYYCARENYDFWSGDPYGWDVWGQGTTVTVSS VL: DIQMTQSPSSLSASVGDRVTITCRASQDISNYLAWFQQKPGKAPKSLIYGASSLQRGVPSKFRGSGSGTDFTLTISSLQPEDFASYYCQQYNSYPYTFGQGTKLEIK | 0.244 | – | – | – | – | – | – | – | – | – | – | – | – | – | – | – | – | – | – | – | neutralization IC50, Vero cells [1]: 0.017 nM |
| H4H25619P (antibody, V domains shown) VH: QVQLVESGGGVVQPGRSLRLSCTASGFTFSTYGMHWVRHVPGKGLEWVAIVWYDGSDKSYAASVKGRFTISRDNSKNTLFLQMNSLRAEDTAVYYCARQGTYYYYGMDVWGQGTTVTVSS VL: DIQMTQSPSSLSASVGDRVTITCRSSQTITNYLNWYQQRPGKAPKLLIYAASSLQSGVPSRFSGSGSGTDFTLTISSLQPEDFATYYCQQSYSTPPITFGQGTKLEIKR | 1.92 | 0.000953 | 12.1 | 5.59 | 0.00108 | 193000 | 10.7 | 0.00102 | 11.3 | 3.14 | 0.000516 | 164000 | 22.4 | 0.00193 | 6 | 0.3 | 0.5 | 0.000548 | 21.1 | 0.171 | neutralization IC50, Vero cells [11]: 1.26 nM; neutralization IC50, Vero cells [12]: 1.14 nM; IC50 (read off the curve) [13]: ~1 nM; t½ pH 7.4/t½ pH 6.0 [14]: 0.5 |
| H4H25704N (antibody, V domains shown) VH: QVQLVESGGGVVQSGRSLRLSCAASGFTFIYYGMHWVRQAPGKGLEWVAVISYDGSDRYYADSVKGRFTISRDDSKNTLYLQMNSLRPEDTAVYYCAKDRGGRFDYWGQGTLVTVSS VL: EIVLTQSPGTLSLSPGERATLSCRASQSVNNNYLAWYQQKPGQAPRLLIYGASSRATGIPDRFGGGGSGTDFTLTISRLEPEDFAVYYCQRYGNSPLTFGGGTKVEIK | – | 0.00107 | 10.8 | 0.621 | 0.0012 | 1.93e+06 | 9.6 | 0.00131 | 8.85 | 0.27 | 0.000359 | 1.33e+06 | 32.2 | 0.00121 | 9.56 | 0.8 | 0.9 | 0.000959 | 12 | 0.046 | EC50 [15]: 0.18 nM; neutralization IC50, Vero cells [11]: 0.0758 nM; neutralization IC50, Vero cells [12]: 0.278 nM; t½ pH 7.4/t½ pH 6.0 [14]: 1.1 |
| H4H25703N (antibody, V domains shown) VH: QVQLVESGGGVVQPGRSLRLSCAASGFTFNYYGMHWVRQAPGKGLEWVAVISYDGTNKYYADSVKGRFTTSRDNSKNTLYLQMNSLRAEDTALYYCARDRGGRFDYWGQGIQVTVSS VL: EIVLTQSPDTLSLSPGERATLSCRASQSVSSNYLAWYQQKPGQAPRLLIYGASSRATGIPDRFSGSGSGTDFTLTISRLEPEDFAVYYCQRYGTSPLTFGGGTKVEIKR | 0.0846 | 0.00326 | 3.54 | 2.39 | 0.00177 | 738000 | 6.5 | 0.00283 | 4.08 | 0.542 | 0.000307 | 566000 | 37.6 | 0.00211 | 5.47 | 1.3 | 1.5 | 0.0028 | 4.1 | 0.0445 | neutralization IC50, Vero cells [11]: 0.0619 nM; neutralization IC50, Vero cells [12]: 0.251 nM; IC50 (read off the curve) [16]: ~1 nM; t½ pH 7.4/t½ pH 6.0 [14]: 1.3 |
